Experimental data from patent US20190055322A1 (Ablynx, published 2019).

Assays:
[1] = biological target: T1, recombinant PcrV protein (rPcrV), strain PAO1, amino acid residues 1-294, C-terminal His6 (Pseudomonas aeruginosa strain PAO1); assay: ELISA, periplasmic extract on biotinylated rPcrV
[2] = biological target: T2, PcrV of P. aeruginosa strain PA103 (on TTSS-induced bacteria) (Pseudomonas aeruginosa strain PA103); assay: cell-based or functional assay
[3] = biological target: T1, recombinant PcrV protein (rPcrV), …; assay: SPR ProteOn, periplasmic extract on immobilised rPcrV
[4] = biological target: Full length PcrV (aa 1-294), C-terminal c-myc and His6 tags (Pseudomonas aeruginosa strain PAO1); assay: ELISA, binder coated
[5] = biological target: T3, PcrV fragment (aa 144-257), C-terminal c-myc and His6 tags (Pseudomonas aeruginosa); assay: ELISA, binder coated; NB = binding signal = background signal
T3 construct: also called small PcrV fragment

[6] = biological target: T2, PcrV of P. aeruginosa strain PA103 (on …); assay: cell-based or functional assay; remark: listed apart in the source
[7] = biological target: GST-PcrV (strain PAO1, amino acid residues 1-294) (Pseudomonas aeruginosa strain PAO1); assay: SPR Biacore T100, GST-PcrV immobilised
[8] = biological target: T2, PcrV of P. aeruginosa strain PA103 (on …); assay: cell-based or functional assay; remark: listed apart in the source
[9] = biological target: T2, PcrV of P. aeruginosa strain PA103 (on …); assay: cell-based or functional assay; remark: listed apart in the source
[10] = biological target: T2, PcrV of P. aeruginosa strain PA103 (on …); assay: cell-based or functional assay; remark: listed apart in the source
Wherever cytotox assay (% inhibition), P3X63, PA103 is given: test concentration or dose not given here.

B1: Nanobody 7E09 (VHH)
VHH: EVQLVESGGGLVQAGGSLRLSCAASGRTFSSYIMGWFRQAPGKAREFVADITWGQRPYYADSVKGRFTISRDNAKNTVYLEMNSLKPEDTAVYYCAADLGVVIREEHAYWGQGTLVTVSS
notes: also called 07E09
With B1 the “binding ELISA (OD 450 nm)” value [1] was 2.59 OD 450 nm, the “cytotox assay (% inhibition), P3X63, PA103” value (from here on “cytotox assay (% inhibition)”) [2] was 16% and the koff [3] was 0.0004 s⁻¹. B1: binds [4]; no binding [5].

B2: Nanobody 13F07 (VHH)
VHH: EVQLVESGGGLVQAGGSLRLSCAASGNTFSTNPMYWYRQAEGKQRELVASISSRGITNYADSVRGRFSISRDNTKDTVYLQMNSLKPEDTAVYYCRLASLSSGTVYWGKGTLVTVSS
With B2 the “cytotox assay (% inhibition)” value [2] was 13%, the “% inhibition, P3X63 cytotoxicity assay, MOI 1.5” value [6] was over 20% and the “IC50 (nM), P3X63 cytotoxicity assay, MOI 1.5” value [6] was 35600 nM. The koff [3] was 0.00092 s⁻¹, the binding result [4] was “binds” and the binding result [5] was “no binding”.

B3: Nanobody 2B10 (VHH)
VHH: EVQLVESGGGLVQPGGSLRLSCAASGSIFSINNMGWYRQAPGKQRELVTVVTSNLITTYADSVKGRFTISRDNAKNTVYLQMNSLKPEDTAVYYCNAWARSVGSVPYSQFWGQGTLVTVSS
notes: also called 02B10
B3 was tested, and the “binding ELISA (OD 450 nm)” value [1] was 2.57 OD 450 nm, the Kd [7] was 0.5 nM and the koff [7] was 0.00025 s⁻¹. The kon [7] was 510000 M⁻¹ s⁻¹, the “cytotox assay (% inhibition)” value [2] was 38% and the “% inhibition, P3X63 cytotoxicity assay, MOI 4” value (“% inhibition … MOI 4” for short) [6] was 100%. For the same binder, the “IC50 (nM), P3X63 cytotoxicity assay, MOI 4” value (“IC50 (nM) … MOI 4” for short) [6] was 647 nM, the koff [3] was 0.00018 s⁻¹ and the binding result [4] was “binds”.

B4: Nanobody 1E11 (VHH)
VHH: EVQLVESGGGLVQPGGSLRLSCAASGSTRSVNPMAWFRQAPGRQREWVATISRSGYATYADSVKGRFTISGDNAKSSVYLQMNSLKPEDTAVYYCVTGTYWGQGTLVTVSS
notes: also called 01E11
For B4, the “binding ELISA (OD 450 nm)” value [1] was 2.56 OD 450 nm, the “cytotox assay (% inhibition)” value [2] was 33% and the “% inhibition … MOI 4” value [6] was 58%. For the same binder, the “IC50 (nM) … MOI 4” value [6] was 23 nM, the koff [3] was 0.00035 s⁻¹ and the binding result [4] was “binds”.

B5: Nanobody 14E10 (VHH)
VHH: EVQLVESGGGLVQPGGSLRLSCAASGRIFSINTMGWYRQAPGKQRELVAGVTINAITNYADSVKGRFTISRDNAKNTVWLQMNSLKPEDTAVYYCHAWARSSGSAPYSQNWGQGTQVTVSS
In the case of B5, the “cytotox assay (% inhibition)” value [2] is reported as 22%, the “% inhibition, P3X63 cytotoxicity assay, MOI 3” value (from here on “% inhibition … MOI 3”) [6] is reported as 100% and the “IC50 (nM), P3X63 cytotoxicity assay, MOI 3” value (shortened to “IC50 (nM) … MOI 3”) [6] is reported as over 3000 nM. For the same binder, the koff [3] was 0.0006 s⁻¹, the binding result [4] was “binds” and the binding result [5] was “no binding”.

B6: Nanobody 335 (5H01-40GS-1E11) (VHH)
chain: EVQLVESGGGLVQPGGSLRLSCAASGSTLDYYAIGWFRQAPGKEREGVSCTSNSGSTYYGGSVKGRFTASRDNAKNTVYLQMNSLRPEDTAVYYCVATIGCATLGGTLDVQRYYYRGQGTLVTVSSGGGGSGGGGSGGGGSGGGGSGGGGSGGGGSGGGGSGGGGSEVQLVESGGGLVQPGGSLRLSCAASGSTRSVNPMAWFRQAPGRQREWVATISRSGYATYADSVKGRFTISGDNAKSSVYLQMNSLKPEDTAVYYCVTGTYWGQGTLVTVSS
For B6, the “Efficacy (%), P3X63 cytotoxicity, MOI 12” value [8] was 100%, the “IC50 value (M), P3X63 cytotoxicity, MOI 12” value [8] was 6.4e-11 M and the “Ratio (IC50 Fab 13.37/IC50 Nanobody), A549 cytotoxicity” value [9] was 1 fold. The “% inhibition in P3X63 cytotoxicity assay, extract 1/150” value [10] was 46%.

B7: Nanobody 5H01 (VHH)
VHH: EVQLVESGGGLVQPGGSLRLSCAASGSTLDYYAIGWFRQAPGKEREGVSCTSNSGSTYYGGSVKGRFTASRDNAKNTVYLQMNSLRPEDTAVYYCVATIGCATLGGTLDVQRYYYRGQGTQVTVSS
notes: also called 05H01
B7 was tested, and the “binding ELISA (OD 450 nm)” value [1] was 2.69 OD 450 nm, the Kd [7] was 1 nM and the koff [7] was 0.00014 s⁻¹. For the same binder, the kon [7] was 160000 M⁻¹ s⁻¹, the “cytotox assay (% inhibition)” value [2] was 76% and the “% inhibition … MOI 4” value [6] was 100%. The “IC50 (nM) … MOI 4” value [6] was 7 nM, the koff [3] was 4.9e-05 s⁻¹ and the binding result [4] was “binds”.

B8: Nanobody 6B05 (VHH)
VHH: EVQLVESGGGLVQPGGSLRLSCAASGSIFSINTMGWYRQAPGKQRELVSTITSNLVPHYADSVQGRFTISRDNARNTVYLQMNSLKPQDTAHYYCNAWARSSGATPYTNYWGQGTLVTVSS
notes: also called 06B05
With B8 the “binding ELISA (OD 450 nm)” value [1] was 2.55 OD 450 nm, the “cytotox assay (% inhibition)” value [2] was 32% and the “% inhibition … MOI 3” value [6] was 100%. The “IC50 (nM) … MOI 3” value [6] was 435 nM, the koff [3] was 0.00018 s⁻¹ and the binding result [4] was “binds”.

B9: Fab 13.37 (Fab, V domains shown)
VH: QVQLVESGGGVVQPGRSLRLSCAASGFTFSSYPLHWVRQAPGKGLEWVSFISYDGSEKYYASSVKGRFTISRDNSENTLYLQMNSLRPEDTAVYYCARNRGDIYYDFTYAMDIWGQGTMVTVSS
VL: DIQMTQSPSSLSASVGDRVTITCRASQSISRWVAWYQQRPGKAPNLLIYDASSLKSGVPSRFSGSGSGTEFTLTISSLQPEDIATYYCQQFWGTPYTFGQGTKLEIKR
With B9 the “Efficacy (%), P3X63 cytotoxicity, MOI 12” value [8] was 100%, the “IC50 value (M), P3X63 cytotoxicity, MOI 12” value [8] was 5.4e-10 M and the “% inhibition, P3X63 cytotoxicity assay, MOI 1.5” value [6] was 100%. For the same binder, the “% inhibition … MOI 3” value [6] was 100%, the “% inhibition … MOI 4” value [6] was 100% and the “IC50 (nM), P3X63 cytotoxicity assay, MOI 1.5” value [6] was 1 nM. The “IC50 (nM) … MOI 3” value [6] was 1 nM, the “IC50 (nM) … MOI 4” value [6] was 8 nM and the binding result [4] was “binds”.
